Assay: yeast display, Sf9 membrane polyspecificity reagent, FACS + sequencing; frameworks hold sequencing errors
In short: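 Galactose induction of a Saccharomyces cerevisiae BJ5465 synthetic nanobody display library ran 36–48 hours. The cells were then stained for 1 hour at 4 °C with 10% biotinylated, detergent-solubilized Sf9 membrane reagent, pulled down on streptavidin microbeads and FACS-sorted into low and high (top ~1%) gates on expression and reagent-binding fluorescence. Labels for polyreactivity follow the gate of origin.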

| Sequence | polyreactivity (PSR sort gate) |
| --- | --- |
| QVQLVESGGGLVQAGGSLRLSCAASGSNFTAYAMGWYRQAPGKERELVAAITKSSVTYYADSVKGRFTISRDNAKNTVYLQMNSVKPEDTAVYYCAGYSPRPSDLYSPIAYYYWGQGTLVTVSS | low polyreactivity |
| QVQLVESGGGLVQAGGSLRLSCAASGSNFTGYGMGWYRQAPGKETELVAAITWSGGSTYYADSVKGRFTISRDNAKNTVYLQMNSLKPEDTAVYYCATPGIYYEMDYWGQGTQVTVSS | low polyreactivity |
| QVQLVESGGGLVQAGGSLRLSCAASGSNFTSNGMGWYRQAPGKERELVAAITRRGGRTYYADSVKGRFTISRDNAKNTVYLQMNSLKPEDTAVYYCAAKSTSLYDYWGQGTQVTVSS | low polyreactivity |
| QVQLVESGGGLVQAGGSLRLSCAASGSNFTVYDMGWYRQAPGKERELVAAISFSGGSTYYADSVKGRFTISRDTAKNTVYLQMNSLKPVDTAVYYCAADTYTTPYEYWGQGTQVTVSS | low polyreactivity |
| QVQLVESGGGLVQAGGSLRLSCAASGSNFVKYVMGWSRQAPGKERELVAAITWRGGRTYYADSVKGRFTISRDNEKNTVYLQMNSLKPEDTAVYYCAAYDQSLYGRRYDYWGQGTQVTVST | high polyreactivity |
| QVQLVESGGGLVQAGGSLRLSCAASGSNFYRNAMGWYRQAPGKERELVAGIRWTGTRTYYADSVKGRFTISRDNAKNTVYLQMNSLKPEDTAVYYCNAVYSLSNAVDGDYWGQVTQVTVSS | high polyreactivity |
| QVQLVESGGGLVQAGGSLRLSCAASGSNIGTYAMGWYRQAPGKERELVAAISSSGGRTYYADSVKGRFTISRDNAKNTVYLQMNSLKPEDTAVYYCATKRVLTGYDSWGQGTQVTVSS | high polyreactivity |
| QVQLVESGGGLVQAGGSLRLSCAASGSNITPNAMGWYRQAPGKERELVAAISSSSDRTYYADSVKGRFTISRDNAKNTVYLQMNSLKPEDTAVYYCAAYAQKRYYWGQGTQVTVSS | high polyreactivity |
| QVQLVESGGGLVQAGGSLRLSCAASGSNSDPYAMGWYRQAPGKEREFVAAITFSVSSTYYADSVKGRFTISRDNAKNTVYLQMNSLKPEDTAVYYCAARRPLYPERDYWGQGTQVTVSS | high polyreactivity |
| QVQLVESGGGLVQAGGSLRLSCAASGSNYGFYAMGWYRKAPGKERELVAVISSDGSTNYADSVKGRFTISRDNAKNTVYLQMNSLKPEDTAVYYCAADWSITYGDGGYWGQGTQVTVSS | low polyreactivity |
| QVQLVESGGGLVQAGGSLRLSCAASGSNYSGYAMGWARQAPGKERELVAAITKSGGRTYYADSVKGRFTISRDNAKNTVYLQMNSLKPEDTAVYYCAKAYPGTYREYDYWGQGTQVTVSS | high polyreactivity |
| QVQLVESGGGLVQAGGSLRLSCAASGSPFHRYVMGWYRQAPGKERELVAVINSTGGSTYYADSVKGRFTISRDHAKNTVDLQMNSLKPEDTAVYYCNAVRDWGPSQVYDGMDYWGQGTQVTVSS | low polyreactivity |
| QVQLVESGGGLVQAGGSLRLSCAASGSPFSRNAMGWYRPAPGKEREMVAAISYSGGSTYYADSVKGRFTISRDNAKNTVYLQLNSLKPEDTAVYYCNTYIVNYSGQEMVYWGQGTQVTVSS | high polyreactivity |
| QVQLVESGGGLVQAGGSLRLSCAASGSPSQPYAMGWYRQAPGKVRELVASITNGGITYYADSVKGRFPISRDNANNTVELQMNSLKPEDTAVYYCARTGPSAYWEFDYWGQGTQVTVSS | low polyreactivity |
| QVQLVESGGGLVQAGGSLRLSCAASGSPSYFNVKGWYRQAPGKERQLVAAISWSGGSTYADSVKGRFTISRDNAKNTVYLQMNSLKREDTAFYYCNKDYGYVQLRFYCPGYYWGQGTQVTVSS | low polyreactivity |
| QVQLVESGGGLVQAGGSLRLSCAASGSSFEPNAMGWYRQAPGKERELVASITSSGGNTYYADSVKGRFTISRDNAKNTVYLQMNSLKPEDTAVYSCAAGSGYAFGGYYLWGFGYWGQGTQVTVSS | low polyreactivity |
| QVQLVESGGGLVQAGGSLRLSCAASGSSFRRYAMGWSRQAPGKERELVASITASGGSTYYADSVKGRFTISRDNAKNTVYLQMNSLKAEDTAVYYCNKDTIKSYYRRYDSWGQGTQVTVSS | low polyreactivity |
| QVQLVESGGGLVQAGGSLRLSCAASGSSFTWYAMGWYRQAPGKERELVAAITRGGSTYADSVKGRFTISRDNAKNTVYLQMNSLKPEDTAVYYCNAVYGVYDFNYWGQGTQVTVSS | low polyreactivity |
| QVQLVESGGGLVQAGGSLRLSCAASGSTAYVMGWYRQAPGKETELVAAISKSGGSTYYADSVKGRFTISRDNAKNTVYLQMNSLKPEDTAVYYCSALYPTTTAYRYGYWGQGTQVTVSS | high polyreactivity |
| QVQLVESGGGLVQAGGSLRLSCAASGSTCGTNAMGWYRQAPGKERELVAAITWSGGRTYYADSVKGRFTISRDNAKNTVYLQMISLKPEDTAVYYCNAGYSYRRRNGYGYDYWGQGTQVTVSS | high polyreactivity |
| QVQLVESGGGLVQAGGSLRLSCAASGSTFAANTMGWYRQAPGKERELVAAITVRGGSTYYADSVKGRFTISRDNAKNTVYLLMQSLKPEDTAVYYCAAERPPYGYLVVGYVSTQYYYWGQGTQVTVSS | low polyreactivity |
| QVQLVESGGGLVQAGGSLRLSCAASGSTFAFNAMGWYRQAPGQERELVAGITWSSGSTYYADSVKGRFTISRDNAKNTVYLQMNSLKPEDTAVYYCNVQSVHFRLWKDNYWGQGTQVTVSS | high polyreactivity |

| Sequence | polyreactivity (PSR sort gate) |
| --- | --- |
| QVQLVESGGGLVQAGGSLRLSCAASGSTFAFYAMGWYRQAPGKERELVAAITWRVGSTYYADSVKGRFTISRDNAKNTVYLQMNSLKPEDTAVYYCAVDIPFYDSDYWGQGTQVTVSS | low polyreactivity |
| QVQLVESGGGLVQAGGSLRLSCAASGSTFAGNAMGWYRQAPGKERELFAAITFSGGRTDYADSVKGRFTISRDNAKNTVYLQMNSLKPEDTAVYYCAAPADVTVHYLNYYWGQGTQVTVSS | low polyreactivity |
| QVQLVESGGGLVQAGGSLRLSCAASGSTFAGNPMGWYRQATGKERELVAAIDSSTGSTYYADSVKGRFTISRDNAMNTVYLQMNSLKPEDTAVYYCNKTSFLVKLDYWGQGTQVTVSS | low polyreactivity |
| QVQLVESGGGLVQAGGSLRLSCAASGSTFAGYAMGWYRQAPGKERELVAAIRSGGSTYYADSVKGRFTISRDNAKNTVYLQMNSLKPEDTAVYYCNAVYAFNGYDYWGQVTQVTVSS | low polyreactivity |
| QVQLVESGGGLVQAGGSLRLSCAASGSTFAGYAMGWYRQAPGKERELVAAISWNGGSTYYADSVKGRFTISRDNAKNTVYLQMNSLKPEDTAVYYCAKARYYSWKGKGDYWGQGTQVTVSS | high polyreactivity |
| QVQLVESGGGLVQAGGSLRLSCAASGSTFAIYAMGWYRQAPGKERELVAAISKSGGSTYYADSVKGRFTISRDNAKNTVYLQMNILKPEDTAVYYCARRQYAFGPYGFYYWGQGTQVTVSS | high polyreactivity |
| QVQLVESGGGLVQAGGSLRLSCAASGSTFAKNAMGWYRQAPGKERELVAAITYSGGSTYYADSVKGRFTISRDYAKNTVYLEMYSLKPEYTAVYYCAADVWWSYFRYDYWGQGTQVTVSW | low polyreactivity |
| QVQLVESGGGLVQAGGSLRLSCAASGSTFALNAMGWYRQAPGKERELVAAITTGGHTYYADSVKGRFTISRDNAKNTDYLQMNSLKPEDTAVYYCATVFYFDYYYHYDYWGQGTQVTVSS | low polyreactivity |
| QVQLVESGGGLVQAGGSLRLSCAASGSTFALYTMGWYRQAPGKERELVAGITIDGSTNYADSVKGRFTISRDNAKNTVYLQMNSLKPEDTAVYYCNADSYKYPLLKYRSDYWGQGTQVTVSS | low polyreactivity |
| QVQLVESGGGLVQAGGSLRLSCAASGSTFANYAMGWYRQAPGKERELVAGISWRGGRTYYADSVKGRFTISRDNAKNTVYLQMNSLKPEDTAVYYCAAEVLKTRWSYDYWGQGTQVTVSS | high polyreactivity |
| QVQLVESGGGLVQAGGSLRLSCAASGSTFANYVMGWYRQAPGKEREVVAAISWTGGSTYYADSVKGRFTISRDNAKNTVYLQMHSLKPEDTAVYYCNAASYAWLWHPKSGLYDYWGQGTQVTVSS | low polyreactivity |
| QVQLVESGGGLVQAGGSLRLSCAASGSTFAPNAMGWYRQAPGKERELVAAISSGGDSTNYADYVKGRFTISRDNAKNTVYLQMNSLKPEDTAVYYCAHGYCFVAYDYWGQGTQVTVSS | low polyreactivity |
| QVQLVESGGGLVQAGGSLRLSCAASGSTFAQNAMGWYRQAPGKEREYVAAITGTVGSTYYADSVKGRFTISRDNAKNTVYLQMNSLKPEDTAVYYCNTRGFNGRVYPYDYWGQGTQVTVSS | low polyreactivity |
| QVQLVESGGGLVQAGGSLRLSCAASGSTFAQYAMGWYRQAPGKEREFVAAITRGGGRTYYADSVKGRFTISRDNAKNSVYLQMNSLKPEDTAVYYCNAVYRYYPFDYWGQGTQVTVSS | high polyreactivity |
| QVQLVESGGGLVQAGGSLRLSCAASGSTFAQYAMGWYRQPPRKERELVAAISRRGASTYYADSVKGLFTISRDIAKNTVYLQMNSLKPEDTAVYYCNAVRGEKMGYWGQGTQVTVSS | high polyreactivity |
| QVQLVESGGGLVQAGGSLRLSCAASGSTFARNARGWYRQAPGKERELVAAITTRGSSTYYADSVKGRFTISRDNAKNTVYLQMHSLKPEDTAVYYCAADSRRSWYWGGYRQTGMGYWGQGTQVTVSS | high polyreactivity |
| QVQLVESGGGLVQAGGSLRLSCAASGSTFARYAMGWYRHAPGKETELVAGIWNTGRTYYADSVKGRFTISRDNAKNTVYLQMNSLKPEDTAVYYCAALYNSPNVTYYYWGQGTQVTVSS | high polyreactivity |
| QVQLVESGGGLVQAGGSLRLSCAASGSTFARYAMGWYRPAPGKERELVAVIRSGGSTNYADSVKGRFTISRDNAKNTVYLQMNSLKPEDTAGAADQWTIHRWATYGYWGQGTQVTVSS | low polyreactivity |
| QVQLVESGGGLVQAGGSLRLSCAASGSTFARYAMGWYRQAPGKERELVAAISKGGDRTYYADSVKGRFTISRDNAKNTVYLQMNSLKPEDTAVYYCAARYTPRRYYYWGQGTQVTVSS | high polyreactivity |
| QVQLVESGGGLVQAGGSLRLSCAASGSTFARYAMGWYRQAPGKERELVASITQSSGSTYYADSVKGRFTISRDNAKSTVYLQMNSLKPEDTAVYYCAKVISYGPVPDRYDYWGQGTQVTVSS | high polyreactivity |
| QVQLVESGGGLVQAGGSLRLSCAASGSTFARYAMGWYRQAPGKERELVAVITRSGGSTYYADSVKGRFTISRDNAKNTVYLQMNSLKPEDTDVYYCNKYGYKGGVGYDYWGQGTQVTVSS | high polyreactivity |

— the nanobody polyreactivity screen of Harvey et al. (2022)
